Test [1] concerns the target T1, binary complex of FGFR1c ligand-binding domain with αKlotho ectodomain (murine; human, UniProt P11362 142-365).
T1 construct: range 142-365; also called αKlotho-FGFR1c complex; binary αKlotho-FGFR1c complex; not shown: C-terminal FLAG tag
T1 sequence 1: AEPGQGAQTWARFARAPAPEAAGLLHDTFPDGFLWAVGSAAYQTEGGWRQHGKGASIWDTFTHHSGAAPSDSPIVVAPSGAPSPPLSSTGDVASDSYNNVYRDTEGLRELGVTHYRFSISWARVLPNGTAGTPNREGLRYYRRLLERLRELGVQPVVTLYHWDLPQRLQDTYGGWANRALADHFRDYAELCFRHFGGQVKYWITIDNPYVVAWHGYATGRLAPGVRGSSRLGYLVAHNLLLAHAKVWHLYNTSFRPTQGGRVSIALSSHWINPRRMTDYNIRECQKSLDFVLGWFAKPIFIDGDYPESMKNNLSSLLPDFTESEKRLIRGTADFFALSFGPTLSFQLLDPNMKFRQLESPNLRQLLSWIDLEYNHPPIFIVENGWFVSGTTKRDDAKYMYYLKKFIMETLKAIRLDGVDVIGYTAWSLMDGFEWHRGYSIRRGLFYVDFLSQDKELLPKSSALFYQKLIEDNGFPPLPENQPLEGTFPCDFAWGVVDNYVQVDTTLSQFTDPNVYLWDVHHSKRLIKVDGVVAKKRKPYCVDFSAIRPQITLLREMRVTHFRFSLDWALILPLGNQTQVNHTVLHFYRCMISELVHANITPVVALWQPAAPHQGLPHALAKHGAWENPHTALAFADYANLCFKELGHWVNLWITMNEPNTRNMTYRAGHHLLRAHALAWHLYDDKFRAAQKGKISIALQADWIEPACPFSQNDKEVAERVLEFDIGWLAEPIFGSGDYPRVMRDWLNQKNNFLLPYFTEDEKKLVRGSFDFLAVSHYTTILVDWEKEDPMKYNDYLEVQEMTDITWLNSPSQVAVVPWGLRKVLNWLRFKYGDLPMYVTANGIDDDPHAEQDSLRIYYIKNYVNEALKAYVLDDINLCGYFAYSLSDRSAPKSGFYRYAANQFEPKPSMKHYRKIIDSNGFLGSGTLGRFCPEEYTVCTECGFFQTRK
T1 sequence 2: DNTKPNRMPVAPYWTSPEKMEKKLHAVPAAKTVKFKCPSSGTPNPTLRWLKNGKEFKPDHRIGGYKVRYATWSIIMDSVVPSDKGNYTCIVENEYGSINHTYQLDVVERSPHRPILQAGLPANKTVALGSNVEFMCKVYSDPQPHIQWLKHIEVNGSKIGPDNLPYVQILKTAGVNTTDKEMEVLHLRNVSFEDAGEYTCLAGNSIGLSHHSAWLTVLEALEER
The experiment in a line: SPR competition: increasing chimera with a fixed concentration of αKlotho-FGFR1c complex over immobilized FGF23 (competitor). The source says:
FIGS. 7A and 7B show overlays of SPR sensorgrams illustrating inhibition by FGF2^ΔHBScore-FGF23^C-tail (FIG. 7A) or FGF23 (FIG. 7B) of αKlotho-FGFR1c binding to FGF23 immobilized on a biosensor chip. Increasing concentrations of FGF2^ΔHBScore-FGF23^C-tail or FGF23 were mixed with a fixed concentration of αKlotho-FGFR1c complex, and the mixtures were passed over a FGF23 chip. […] FGF2 and αKlotho-FGFR1c complex were mixed at a molar ratio of 15:1, and the mixture was passed over a biosensor chip containing immobilized FGF23. FIGS. 7D and 7E show overlays of SPR sensorgrams illustrating no inhibition by FGF2^ΔHBScore-FGF23^C-tail (FIG. 7D) or FGF23 (FIG. 7E) of βKlotho-FGFR1c binding to FGF21. FGF2^ΔHBScore-FGF23^C-tail or FGF23 were mixed with βKlotho-FGFR1c complex at a molar ratio of 10:1, and the mixtures were passed over a biosensor chip containing immobilized FGF21. […] Wild-type mice and αKlotho knockout mice were given 0.21 mg and 0.51 mg of protein, respectively, per kg of body weight. Data are presented as mean±SEM; **, P<0.01; ***, P<0.001 by ANOVA. […]
To determine whether the FGF2^ΔHBScore-FGF23^C-tail and FGF2^ΔHBScore-FGF21^C-tail chimeras gained the ability to signal in a Klotho co-receptor-dependent, endocrine fashion, it was first analyzed whether these chimeras can form ternary complexes with FGFR1c and Klotho co-receptor. […]

Test [2] has as its target T2, ligand-binding domain of human FGFR1c (D142 to R365) (human, UniProt P11362 142-365).
T2 construct: range 142-365
T2 sequence (looked up): T1 sequence 2
The experiment in a line: SPR: FGF23^C-tail immobilized on chip, increasing concentrations of FGFR1c ligand-binding domain passed over (FIG. 10F). The source says:
(§1) FIGS. 10A-10D show overlays of SPR sensorgrams illustrating binding of FGFR1c to FGF2 (FIG. 10A), FGF19 (FIG. 10B), FGF21 (FIG. 10C), and FGF23 (FIG. 10D), and fitted saturation binding curves. Increasing concentrations of FGFR1c ligand-binding domain were passed over a biosensor chip containing immobilized FGF2, FGF19, FGF21, or FGF23. […] Increasing concentrations of αKlotho-FGFR1c complex were passed over a biosensor chip containing immobilized FGF23. […] FGF23^C-tail was immobilized on a biosensor chip and increasing concentrations of FGFR1c ligand-binding domain were passed over the chip. Dissociation constants (KDs) given in FIGS. 10A-10E were derived from the saturation binding curves.
For orientation: In SPR one partner is held on a chip, and binding of the other changes the refractive index at the surface.

Test [3] concerns the target T3, binary complex of FGFR1c ligand-binding domain with αKlotho ectodomain (human, UniProt P11362 142-365).
T3 chain 1: T1 sequence 1
T3 chain 2: T1 sequence 2
The experiment in a line: SPR.

The target in test [4] is T4, ligand-binding domain of human FGFR1c (D142 to R365) (human, UniProt P11362 142-365).
T4 chain: T1 sequence 2
Description: SPR.

The target of test [5] is T1, binary complex of FGFR1c ligand-binding …. The experiment in a line: SPR: immobilized FGF23; αKlotho-FGFR1c complex (FIG. 10E) against FGFR1c ligand-binding domain alone (FIG. 10D).
Excerpt: as §1
In the target tissue, Klotho co-receptors constitutively associate with cognate receptors of endocrine FGFs to offset the inherently low receptor-binding affinity of endocrine FGFs (FIGS. 10B-10D; Kurosu et al., J. Biol. Chem. 282:26687-26695 (2007); Kurosu et al., J. Biol. Chem. 281:6120-6123 (2006); Ogawa et al., Proc. Nat'l. Acad. Sci. U.S.A. 104:7432-7437 (2007); Urakawa et al., Nature 444:770-774 (2006), which are hereby incorporated by reference in their entirety). […]

For test [6], the target named is T2, ligand-binding domain of human FGFR1c …. The experiment in a line: SPR: FGFR1c ligand-binding domain over immobilized FGF21 (FIG. 10C).
Excerpt: as §1

B1: FGF2^ΔHBScore-FGF23^C-tail chimera (designed binder)
chain: MAAGSITTLPALPEDGGSGAFPPGHFKDPKRLYCKNGGFFLRIHPDGRVDGVREKSDPHIKLQLQAEERGVVSIKGVSANRYLAMKEDGRLLASKSVTDECFFFERLESNNYNTYRSRKYTSWYVALDQTGQYVLGSKTGPGQKAILFLPMRNEIPLIHFNTPIPRQHTQSAEDDSERDPLNVLKPRARMTPAPASCSQELPSAEDNSPMASDPLGVVRGGRVNTHAGGTGPEGCRPFAKFI
notes: Core domain of FGF2 (M1 to M151, K128D/R129Q/K134V, C78S/C96S) joined to the C-terminal region of FGF23 (R161 to I251, R176Q/R179Q)
For the molecule B1, the binding result in test [1] is listed as “binds”.

B2: N-terminally hexahistidine-tagged C-terminal tail peptide of FGF23 (S180 to I251) (peptide)
peptide: SAEDDSERDPLNVLKPRARMTPAPASCSQELPSAEDNSPMASDPLGVVRGGRVNTHAGGTGPEGCRPFAKFI
notes: also called FGF23^C-tail; not shown: N-terminal hexahistidine tag
With B2, the binding result in test [2] is reported as “no binding”.

B3: N-terminally hexahistidine-tagged, mature form of human FGF23 (Y25 to I251) with arginines 176 and 179 replaced with glutamine (ligand)
chain: YPNASPLLGSSWGGLIHLYTATARNSYHLQIHKNGHVDGAPHQTIYSALMIRSEDAGFVVITGVMSRRYLCMDFRGNIFGSHYFDPENCRFQHQTLENGYDVYHSPQYHFLVSLGRAKRAFLPGMNPPPYSQFLSRRNEIPLIHFNTPIPRQHTQSAEDDSERDPLNVLKPRARMTPAPASCSQELPSAEDNSPMASDPLGVVRGGRVNTHAGGTGPEGCRPFAKFI
notes: also called native FGF23; wild-type FGF23; not shown: N-terminal hexahistidine tag
For B3, the Kd in test [3] came to 27.4 nM; in test [4], 648 nM. Besides, the “fold enhancement of the affinity of FGF23 for FGFR1c by αKlotho (against FGFR1c alone)” value in test [5] was greater than 20 fold.

B4: N-terminally hexahistidine-tagged, mature form of human FGF21 (H29 to S209) (ligand)
chain: HPIPDSSPLLQFGGQVRQRYLYTDDAQQTEAHLEIREDGTVGGAADQSPESLLQLKALKPGVIQILGVKTSRFLCQRPDGALYGSLHFDPEACSFRELLLEDGYNVYQSEAHGLPLHLPGNKSPHRDPAPRGPARFLPLPGLPPALPEPPGILAPQPPDVGSSDPLSMVGPSQGRSPSYAS
notes: also called native FGF21; not shown: N-terminal hexahistidine tag
B4 displayed an equilibrium dissociation constant (Kd) in test [4] of 2520 nM. In addition, in test [6], the binding result is “binds”.

As a reminder, the Kd is the equilibrium constant for the complex coming apart. High values mean weaker binding, low ones tighter binding.

The record behind these values is patent US20130331325A1 (NEW YORK UNIVERSITY, published 2013).
